Source: the supplement of paper PMC10126150
± gives the standard deviation of the averaged measurements.

Tested on: ATP
Experiment: switch fluorescence ratio, 500 uM ATP over buffer (Cy3 cluster intensity, sum of 5 cycles each) (fold (ratio)); higher = stronger signal-on switching upon ATP binding; sequences stand for … in TCGTCGGCAGCGTCAGATGTGTATAAGAGACAGTTTTTTTTTTTTTTTTTTTTTTTTT…TC
Conditions: aptamer strand: ATP DNA aptamer (quencher-CACCTGGGGGAGTATTGCGGAGGAAGG + anchor), 100 nM annealed; ATP concentration: 500 uM
Method in brief: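 Switching-strand clusters labelled with Cy3 on a modified Illumina MiSeq flow-cell were annealed to 100 nM quencher-labelled ATP aptamer, imaged in selection buffer, and re-imaged after 15 min with 500 uM ATP at 22 °C. This was done over five cycles with NaOH stripping and re-annealing in between. The fluorescence ratio is summed target-cycle over summed buffer-cycle Cy3 intensity per cluster, averaged per switch-domain sequence, excluding clusters outside 100-1000 RFU.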
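Further: ATP exposure 15 min at 22 °C before imaging.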

Row | Sequence | switch fluorescence ratio
1 | GTTCGAACGA | 0.9856 ± 0.001
2 | AAGCCTGGTG | 1.6 ± 0.063
3 | GGAGATTGGG | 0.9697 ± 0.0033
4 | AGCCCACTCG | 1.04 ± 0.05
5 | GCTCCAATAA | 2.49 ± 0.047
6 | GGTGTTAGTC | 1.02 ± 0.036
7 | AATGGCAGTC | 1.03 ± 0.05
8 | CGCATGTTTT | 1.06 ± 0.1
9 | CCATTTATTT | 1.02 ± 0.019
10 | AGATGATAGG | 1.0282 ± 0.00044
11 | TTAACTAGGG | 0.974 ± 0.037
12 | TTATAAGTTT | 1.03 ± 0.078
13 | TGCTGGTATA | 0.983 ± 0.038
14 | AAATTAAGGG | 1.02 ± 0.03
15 | TGAATTTTGT | 0.978 ± 0.036
16 | ACTCTTTATA | 1.04 ± 0.035
17 | CAAAAAATC | 1.02 ± 0.028
18 | TATCATGTTG | 0.9987 ± 0.0047
19 | CGAATCAATC | 2.51 ± 0.44
20 | CCAGAAGTGA | 1.08 ± 0.018
21 | TTCGGATGAG | 0.977 ± 0.041
22 | ATGTCACTGT | 1.01 ± 0.043
23 | TGCAGGAATT | 1.09 ± 0.17

Row | Sequence | switch fluorescence ratio
24 | GTATGTGGGG | 0.996 ± 0.038
25 | GGTGATGTTG | 0.9611 ± 0.0055
26 | GGATAAGGGG | 1.02 ± 0.039
27 | GTTATGACTC | 1 ± 0.076
28 | TATTGGTCAA | 0.962 ± 0.017
29 | GATAGGGCTT | 0.994 ± 0.056
30 | AACTTGGCAT | 1.02 ± 0.011
31 | GAGGGTAATA | 1.01 ± 0.017
32 | AAATGTGTGG | 0.977 ± 0.019
33 | TCGTGAGTGG | 0.975 ± 0.021
34 | TATGTTTGGG | 0.986 ± 0.034
35 | TTCTTTATGT | 0.999 ± 0.021
36 | TATTCATGGT | 1.025 ± 0.0057
37 | ATATGGCACG | 1.032 ± 0.0014
38 | CTGAAGGGCT | 1.04 ± 0.017
39 | TGGAAAGGGG | 1.01 ± 0.014
40 | AAGTTGTTAT | 0.986 ± 0.045
41 | CTGAGTATGT | 0.988 ± 0.015
42 | GCTTTCTGCG | 1.05 ± 0.042
43 | TCCCCCGCCG | 1.09 ± 0.12
44 | TAAGGCTACC | 1.048 ± 0.004
45 | AAAAAAGGGT | 1.02 ± 0.021
46 | CCGCTGTTTT | 1.16 ± 0.23

Row | Sequence | switch fluorescence ratio
47 | AGGGGAAGGG | 1.02 ± 0.012
48 | TTGGGCCATG | 1.05 ± 0.027
49 | TTTTAAGGTG | 1.39 ± 0.055
50 | CCTTGGTGAG | 1.01 ± 0.014
51 | TCTGGGAGGC | 1.01 ± 0.021
52 | CGAGTGGGTG | 0.996 ± 0.018
53 | TGTTGGCGCG | 0.989 ± 0.053
54 | TTCGGGGGT | 0.983 ± 0.024
55 | GGGTGAGCGA | 1.05 ± 0.064
56 | ACGTGTCTTG | 1.01 ± 0.013
57 | AGAATGCAGC | 0.995 ± 0.041
58 | GCGCTCCGGG | 1.09 ± 0.072
59 | TAAAAGTTTG | 0.996 ± 0.034
60 | GATTACGGGA | 1.052 ± 0.0098
61 | GGTGGGAGTG | 1.37 ± 0.66
62 | GTGGACACAC | 1.04 ± 0.035
63 | AGTGAGATGA | 1 ± 0.04
64 | TAGTGGGAGA | 1.03 ± 0.029
65 | TGGGGTCAAG | 0.991 ± 0.01
66 | TGGTTAAAAA | 0.98 ± 0.049
67 | TCTTCTGGGA | 1.026 ± 0.0038
68 | GGTATGGTGG | 1.01 ± 0.036
69 | TTTAGGTAGA | 1.02 ± 0.014

Row | Sequence | switch fluorescence ratio
70 | TTTCGGATGT | 0.984 ± 0.04
71 | TTGCTCTGGG | 0.974 ± 0.019
72 | TTATAATAGT | 1 ± 0.013
73 | TTCATCGTCT | 1.01 ± 0.042
74 | TACATTGGCT | 0.982 ± 0.019
75 | TGCCAGTTTG | 0.9907 ± 0.0065
76 | GATCATCCTG | 1.008 ± 0.0065
77 | TATAAGACTA | 1.02 ± 0.021
78 | AAAGGGATAT | 0.975 ± 0.049
79 | TTAGAAAACT | 1 ± 0.012
80 | TCTTACGGCT | 1.03 ± 0.033
81 | ATCTTTACCT | 1.26 ± 0.036
82 | GAGGGCTAAA | 1.06 ± 0.082
83 | ATGTTTTAGG | 1.01 ± 0.047
84 | GCGGCACAAT | 1.05 ± 0.013
85 | GCTGTCCGGA | 1.048 ± 0.0054
86 | TTTTGAGAGA | 1.11 ± 0.25
87 | GATGGGCTCG | 0.988 ± 0.025
88 | TATCGGTTAT | 0.984 ± 0.013
89 | AATGCCAGGG | 1.02 ± 0.026
90 | CTGAGGGGCG | 1.04 ± 0.057
91 | TCAAAACTTG | 1.01 ± 0.057
92 | TGTTTTTTGG | 0.991 ± 0.033

Row | Sequence | switch fluorescence ratio
93 | GAATGTTCTT | 1.0298 ± 6.1e-05
94 | TTGGATTTTC | 1.04 ± 0.032
95 | TTTATGTGTG | 0.999 ± 0.026
96 | GCAAGCTGGG | 1.01 ± 0.014
97 | GGGTGGAAGC | 1.02 ± 0.018
98 | ATTCGGTCTG | 0.9825 ± 0.006
99 | GCGCTTCAA | 0.971 ± 0.014
100 | CACAGGGCTG | 1.026 ± 0.0059
101 | GAGGAAGGAC | 1.04 ± 0.014
102 | GGATTTAGTA | 1.01 ± 0.034
103 | ATTCTAGTCG | 1.02 ± 0.086
104 | TGGTCGGTCT | 1.07 ± 0.074
105 | GCGGGGGAAA | 1.02 ± 0.09
106 | TAAGAAATGG | 1.02 ± 0.079
107 | TACTAGTTGT | 0.99 ± 0.022
108 | ATTTCCTGTG | 1.042 ± 0.0014
109 | GATGTTAGTG | 1.003 ± 0.008
110 | CGTTTGAGTT | 0.984 ± 0.026
111 | GTTGGGGCAA | 1.03 ± 0.02
112 | TGATATTGGT | 1.01 ± 0.021
113 | GATATGTTCC | 1.13 ± 0.084
114 | AGGGGTAAAG | 0.955 ± 0.021
115 | GCACTCGGCT | 0.991 ± 0.0047

Row | Sequence | switch fluorescence ratio
116 | TTGATAATCT | 1 ± 0.026
117 | TACGAAGTAG | 0.993 ± 0.042
118 | GCATCGGGCC | 0.981 ± 0.026
119 | GATGTAGGAA | 1.013 ± 0.0065
120 | CCATTTGAGG | 0.987 ± 0.059
121 | ATTGTCGTGA | 0.991 ± 0.037
122 | TGAAATAGGA | 1.01 ± 0.039
123 | CAGAAGGGCC | 0.997 ± 0.089
124 | AATCCGGGGC | 2.35 ± 1.6
125 | AGGAAAGTGT | 1.01 ± 0.017
126 | CAGATAAGGA | 1.01 ± 0.026
127 | AGATGGGGG | 0.948 ± 0.066
128 | TCCAGGGTTT | 1.06 ± 0.04
129 | TGAGGAAGAC | 1.09 ± 0.014
130 | ACCGCGTGGG | 1.04 ± 7.3e-05
131 | ATAGGGGTTT | 1.013 ± 0.0055
132 | GGATAGTCAG | 0.984 ± 0.016
133 | AATCGGGTAT | 0.984 ± 0.027
134 | GACTGACTGG | 0.996 ± 0.018
135 | CTGCTCCGAT | 1.21 ± 0.034
136 | TGGCTTGCCG | 0.998 ± 0.027
137 | CCGGGTCTGG | 0.992 ± 0.013
138 | GGATTACGAC | 1.12 ± 0.15

Row | Sequence | switch fluorescence ratio
139 | TACTGATAGG | 1.0161 ± 0.00099
140 | ATTGTCAGTT | 1.013 ± 0.0029
141 | CATTTGGGCT | 1.03 ± 0.039
142 | TTACAAGCGA | 1.03 ± 0.019
143 | AAAATGCGTG | 0.966 ± 0.059
144 | ATAGGAGTTA | 0.9814 ± 0.0071
145 | TTCATTGTTT | 1.01 ± 0.02
146 | TTTCGTGTGG | 1.01 ± 0.086
147 | ACCCGGACCT | 1.34 ± 0.059
148 | AGGTAGTCTG | 0.9756 ± 0.003
149 | TTTCCACCGA | 1.14 ± 0.16
150 | GGCCCCGGGG | 1.11 ± 0.069
151 | TTTCAGTCGC | 0.9995 ± 0.0047
152 | TTGGGAAGTT | 1.02 ± 0.031
153 | TTTATCGGGC | 0.989 ± 0.019
154 | GGGGGTTGGT | 0.996 ± 0.026
155 | GCTAAAACCT | 2.25 ± 0.23
156 | ATACTGTTGA | 0.973 ± 0.013
157 | GGGGGGGGGA | 1.01 ± 0.039
